Publication PMC3441668

Target: Bcl-xL (UniProt Q07817)
Test: anti-myc co-IP, Bcl-xL immunoblot
Settings: reference: myc-Rad9 wild type; sites S328

binding against the reference: weaker
Substance: Rad9 (from UniProt Q99638) myc-Rad9 S328A
